One block for each binder: values may come before it. Numbered stars: 1 amine (or outer) side, 2 acyl side, 3 side chain; on linkers, the order of the positions; unused ones are H or OH. Bridge positions count the residues as written; N and C are the ends. Square brackets hold non-standard residues; d marks the D form. Ends that are not written are not given here. TBMB = c1c(C[*:1])cc(C[*:3])cc1C[*:2]; Dap(Me) = CNC[C@H](N)C(=O)O
Legend:
[1] = target: T1, prostate-specific membrane antigen (PSMA) (human, UniProt Q04609 44-750, limits assumed); test: fluorescence polarization, FP (h)
T1 construct: also called Glutamate carboxypeptidase II; GCPII
T1 sequence (Q04609 44-750 limits assumed): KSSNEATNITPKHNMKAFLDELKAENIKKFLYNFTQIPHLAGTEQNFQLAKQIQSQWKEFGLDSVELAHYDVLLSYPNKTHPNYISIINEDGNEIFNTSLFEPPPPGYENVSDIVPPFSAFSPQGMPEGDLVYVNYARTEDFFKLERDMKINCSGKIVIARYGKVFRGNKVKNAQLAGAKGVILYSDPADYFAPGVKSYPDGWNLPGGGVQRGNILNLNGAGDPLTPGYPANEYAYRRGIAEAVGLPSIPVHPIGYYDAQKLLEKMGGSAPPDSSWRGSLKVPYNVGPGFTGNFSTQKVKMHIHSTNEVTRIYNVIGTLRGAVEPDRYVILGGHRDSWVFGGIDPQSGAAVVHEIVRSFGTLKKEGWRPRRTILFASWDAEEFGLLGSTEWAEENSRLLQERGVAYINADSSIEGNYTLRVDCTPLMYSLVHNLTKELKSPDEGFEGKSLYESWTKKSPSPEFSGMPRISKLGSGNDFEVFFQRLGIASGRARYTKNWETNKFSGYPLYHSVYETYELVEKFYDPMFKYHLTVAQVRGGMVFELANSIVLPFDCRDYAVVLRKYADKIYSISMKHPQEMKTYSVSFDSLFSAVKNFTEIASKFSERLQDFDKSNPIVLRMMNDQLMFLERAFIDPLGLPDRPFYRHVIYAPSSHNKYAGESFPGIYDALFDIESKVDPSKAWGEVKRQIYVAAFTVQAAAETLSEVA

[2] = target: T1, prostate-specific membrane antigen …; test: cell-based or functional assay
[3] = target: T1, prostate-specific membrane antigen …; test: fluorescence polarization binding assay
Experimental: PSMA binding was measured using the fluorescence polarization assay methodology described in Shen et al (2013) PLOS ONE 8(7), e68339 and PSMA enzyme inhibition was measured using the methodology described in WO 2009/070302.

Ki [1]: 6 nM
B1: 21-31-11-T01-N001 (peptide)
peptide: FCSECYMMEDGTCA
modifications: linker 2-5-13 via TBMB

Enzyme inhibition IC50 [2]: 695 nM | Ki [1]: 40 nM
B2: 21-31-N002 (peptide)
peptide: ACMVCHMMEDGTCA
modifications: linker 2-5-13 via TBMB

Ki [3]: 3 nM
B3: 21-31-04-T01-N001 (peptide)
peptide: EVCWDCFMMEDGTCA
modifications: linker 3-6-14 via TBMB
notes: Bicyclic peptide on TBMB scaffold, all thioether

Ki [1]: 30 nM
B4: 21-31-04-T01-N007 (peptide)
peptide: EVCWDCFMMEDGTCAXXXXXXK
modifications: N-terminal acetyl; D-Glu at 1; Cys 3, 6 and 14 joined by thioether linkages to TBMB scaffold; X16-X21 = Sar; D-Lys at 22

Ki [3]: 700 nM
B5: 21-31-04-T01-N017 (peptide)
peptide: EVCWD[Dap(Me)]FMMEDGT[Dap(Me)]A
modifications: linker 3-6-14 via TBMB
notes: Bicyclic peptide on TBMB scaffold

Ki [1]: 70 nM
B6: 21-31-01-N001 (peptide)
peptide: CIECYIMEDGTCA
modifications: linker 1-4-12 via TBMB
